Legend:
[1] = biological target: T1, FcγRIIa (Homo sapiens, UniProt P12318, H167R); test: Surface plasmon resonance: binding to immobilised Fc receptor; settings: SPR, steady state
T1 construct: soluble ectodomains of FcR from R&D Systems; purchased R&D Systems 1330-CD-050/CF
T1 sequence (P12318 34-217 H167R limits assumed): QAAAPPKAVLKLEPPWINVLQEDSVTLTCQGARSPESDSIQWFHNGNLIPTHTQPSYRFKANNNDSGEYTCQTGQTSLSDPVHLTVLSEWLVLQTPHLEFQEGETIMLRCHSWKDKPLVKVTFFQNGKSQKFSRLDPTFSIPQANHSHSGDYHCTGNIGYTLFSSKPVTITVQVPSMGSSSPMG
Excerpt: (§1) A BIAcore T200 SPR Biosensors (GE Healthcare) was used to assay the interaction of soluble ectodomains of FcR from R&D Systems with hDectin1-Fc and IgG1. Amine coupling via N-hydroxysuccinimide ester was formed on a CM5 sensor chip surface according to a procedure recommended by the manufacturer. Ectodomains were immobilized at acidic pH, resulting in the following densities: FcγRI (#1257-FC-050): 1919 RU, FcγRIIa (#1330-CD-050/CF):1766 RU, FcγRIIb/c (#1875-CD-050): 1972 RU, FcγRIIIa (#4325-FC-050): 2275 RU, FcγRIIIb (#1597-FC-050/CF): 2393 RU, FcRn (#8639-FC-050): 2836. A range of hDectin1-Fc/IgG1 concentrations was injected into flow cells at a flow rate of […], with a contact and dissociation time of 300 and 900 seconds, respectively. After each assay cycle, the sensor chip surface was regenerated using 10 mM NaOH. Binding response was recorded as resonance units (RU; 1 RU=1 pg/mm^2) continuously, with background binding automatically subtracted. Due to the polyclonal nature of the hDectin1-Fc/IgG1 recombinant proteins used, kinetic constants (kon, koff, t1/2) were not determined, and the KD was calculated by analyzing the concentration-dependence of the steady-state signal reached at the end of the injection using BIA evaluation version 3 software (GE Healthcare) and Scrubber version 2 software (BioLogic Software, Campbell, Australia). The steady-state response was plotted against the concentration of hDectin1-Fc/IgG1 and fitted using Origin software.
(§2) Antibody mediated immune activation depends on the strength of binding and affinity of the Fc to the various Fcγ receptors. Binding to the neonatal receptor FcRn is also important for the half-life in serum and the transcytosis across endothelial cells into various tissues. Surface plasmon resonance was used to evaluate the binding of the Immunoglobulin G's Fc of hDectin1-Fc to the various Fc receptors (FcγRI, FcγRIIa, FcγRIIb, FcγRIIIa, FcγRIIIb and FcRn) present on immune cells by flowing free hDectin1-Fc of various concentrations over immobilised Fc receptors (FIG. 11A-F). […] High affinity FcγRI(CD64) is expressed on macrophages, monocytes and neutrophils and low affinity FcγRIIIa (CD16a) is expressed on natural killer cells, monocytes, macrophages and neutrophils. Both CD64 and CD16a activating receptors have Immunoreceptor Tyrosine based Activation Motif (ITAM) signalling domain. FcγRI strongly binds IgG opsonized targets to trigger phagocytosis and a proinflammatory response of TNFα, IFNγ and production of oxidative species. FcγRIIIa likewise activate degranulation, phagocytosis, and oxidative burst.

[2] = biological target: T2, FcγRIIIb (Homo sapiens, UniProt O75015); test: as above; settings: SPR, steady state
T2 construct: soluble ectodomains of FcR from R&D Systems; purchased R&D Systems 1597-FC-050/CF
T2 sequence (O75015 17-200 limits assumed): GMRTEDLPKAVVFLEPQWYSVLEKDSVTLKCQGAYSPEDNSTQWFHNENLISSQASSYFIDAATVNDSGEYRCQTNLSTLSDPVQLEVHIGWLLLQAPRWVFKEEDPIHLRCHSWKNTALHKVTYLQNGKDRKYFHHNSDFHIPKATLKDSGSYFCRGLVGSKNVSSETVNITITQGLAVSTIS
Excerpt: as §1, §2

[3] = biological target: T3, FcγRIIb (Homo sapiens, UniProt P31994); test: as above; settings: SPR, steady state
T3 construct: soluble ectodomains of FcR from R&D Systems; purchased R&D Systems 1875-CD-050
T3 sequence (P31994 43-217 limits assumed): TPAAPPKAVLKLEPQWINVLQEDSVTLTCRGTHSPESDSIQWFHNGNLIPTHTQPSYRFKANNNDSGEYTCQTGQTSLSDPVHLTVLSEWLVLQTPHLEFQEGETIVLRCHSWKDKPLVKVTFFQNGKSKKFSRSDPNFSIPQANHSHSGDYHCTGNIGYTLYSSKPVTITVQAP
Excerpt: as §1, §2

[4] = biological target: T4, FcRn (Homo sapiens, UniProt P55899); test: as above; settings: SPR
T4 construct: soluble ectodomains of FcR from R&D Systems; purchased R&D Systems 8639-FC-050
T4 sequence (P55899 24-297 limits assumed): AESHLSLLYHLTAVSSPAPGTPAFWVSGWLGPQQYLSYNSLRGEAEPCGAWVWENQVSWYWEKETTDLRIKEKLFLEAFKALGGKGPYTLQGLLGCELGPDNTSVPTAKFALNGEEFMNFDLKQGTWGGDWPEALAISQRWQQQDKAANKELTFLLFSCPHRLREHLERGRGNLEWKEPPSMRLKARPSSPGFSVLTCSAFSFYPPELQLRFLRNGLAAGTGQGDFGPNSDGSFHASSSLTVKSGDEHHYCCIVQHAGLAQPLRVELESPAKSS
T4 sequence (P61769 21-119 partner): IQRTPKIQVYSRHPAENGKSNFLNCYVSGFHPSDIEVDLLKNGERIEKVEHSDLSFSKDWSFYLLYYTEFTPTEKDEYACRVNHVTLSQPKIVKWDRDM
Excerpt: as §1, §2

[5] = biological target: T5, FcγRIIIa (Homo sapiens, UniProt P08637, F176V); test: as above; settings: SPR
T5 construct: soluble ectodomains of FcR from R&D Systems; purchased R&D Systems 4325-FC-050
T5 sequence (P08637 17-208 F176V limits assumed): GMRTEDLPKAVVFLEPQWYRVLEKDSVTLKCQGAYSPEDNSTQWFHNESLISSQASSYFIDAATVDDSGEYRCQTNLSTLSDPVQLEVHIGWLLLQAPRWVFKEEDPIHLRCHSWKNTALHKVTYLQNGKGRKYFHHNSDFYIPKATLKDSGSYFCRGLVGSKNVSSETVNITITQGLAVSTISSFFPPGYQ
Excerpt: as §1, §2

[6] = tested on: SC5314 Candida albicans; test: In vivo mouse monotherapy survival model (haematogenously disseminated candidiasis); set-up: species or system Balb/c mice
Experimental: 9 week old female Balb/c mice (InVivos, Singapore) were injected intraperitoneally with 1, 2 or 4 mg hDectin1-Fc in groups of 8 and the drug was allowed to distribute within the mice till its peak concentration at 2 hours based on the pharmacokinetic data. The mice were then injected intravenously with 0.5, 0.25 or 0.1 milion SC5314 Candida albicans cells to achieve a haematogenously disseminated candidiasis model. Another set of mice were injected with 0.5, 1, 2 mg hDectin1-Fc followed by intravenous injection with SC5314 Candida albicans 2 hours later. […] The mice were observed daily and moribund mice were euthanized and counted as dead the following day. Kaplan-Meier survival plots were made to track the survival overtime of the mice. Statistical analysis of the difference between mice treated with hDectin1-Fc or untreated was done with the Mantel-Cox log rank test.
To examine the effect of hDectin1-Fc passive immunization against reducing the fatality of haematogenously disseminated candidiasis, a Balb/c murine model of hDectin1-Fc at various doses in relation to Candida albicans inoculum was used. […] An untreated group without hDectin1-Fc but infected with the respective inoculum of Candida albicans was used as a control in each experimental set (FIG. 15). Survival in each group was monitored twice daily until all the mice had died or there was survival of 2 weeks from the last death. Moribund mice were euthanized and counted as part of the following day. […] The negative effect on survival of a high dose of hDectin1-Fc in relation to fungal inoculum is most apparent in the 4 mg hDectin1-Fc dose with 0.1 million Candida albicans (FIG. 15C) and 2 mg hDectin1-Fc with 0.05 million Candida albicans inoculum (FIG. 15D). […] The proximity between the 2 mg and 1 mg curves have a growing divergence as the fungal burden is reduced from 0.5 to 0.05 million (FIG. 15A-D).

[7] = tested on: SC5314 Candida albicans; test: In vitro combination therapy checkerboard dilution assay (Amphotericin B & hDectin1-Fc) with human primary macrophages; type: cell-based; settings: between 0 μg/ml and 100 µg/ml hDectin1-Fc, 24 hours
Experimental: Human peripheral blood CD14+ monocytes were cultured at 1×10^6 cells/mL in 5 mL of ImmunoCult™-SF Macrophage Differentiation Medium with Human Recombinant M-CSF at 50 ng/ml in a T-25 flask at 37° C. in a 5% CO2 incubator. On Day 4, 2.5 mL of fresh ImmunoCult™-SF Macrophage Differentiation Medium was added to the flask. On Day 6, M1 activation was initiated with the addition of 50 ng/mL IFN-γ. On Day 8, the macrophages were treated with ACCUTASE and scrapped from the flask. The cells were centrifuged and resuspended in RPMI medium with 10% FBS and seeded into 96 well plates at 10^5 cells/well. The co-culture assay involves the addition of 10^5 cells/well of SC5314 Candida albicans cells to wells containing 10^5 cells/well of human primary macrophages cells with final concentration of hDectin1-Fc at 0, 1, 10 or 100 g/ml and varying concentration of Amphotericin B in a checkerboard dilution assay format in a 96 well plate. The assay was incubated for 24 hr at 37° C. in a 5% CO2 atmosphere incubator and the MIC and MFC determined visual using a Nikon Eclipse Ti-E inverted microscope.
10′ Candida albicans cells and 10′ human primary macropahges were seeded per well in a checkerboard dilution assay of Amphotericin B with the respective concentration of hDectin1-Fc (0, 10, 100 μg/ml) and incubated for 24 hours at 37° C.

## hDectin1-Fc: soluble dimeric fusion protein: human Dectin-1 receptor polypeptide (aa 73-247) fused to human IgG1 Fc via hinge; SEQ ID NO: 5
[1]
  binding to FcγRIIa (Binding Constant KD screen): bind to FcγRI, FcγRIIIa and FcRn only
[2]
  binding to FcγRIIIb (Binding Constant KD screen): bind to FcγRI, FcγRIIIa and FcRn only
[3]
  binding to FcγRIIb (Binding Constant KD screen): bind to FcγRI, FcγRIIIa and FcRn only
[4]
  KD for FcRn compared with Herceptin: moderately weaker binding
[4]; steady state
  binding to FcRn (Binding Constant KD screen): able to interact with and bind to
[5]
  KD for FcγRIIIa compared with Herceptin: moderately weaker binding
[5]; steady state
  binding to FcγRIIIa (Binding Constant KD screen): able to interact with and bind to
[6]; 0.05 mg hDectin1-Fc, subacute inoculum of 0.05 million Candida albicans cells
  survival curve: prominent shift in the survival curve
[6]; 2 mg hDectin1-Fc i.p., 0.05 million Candida albicans i.v. (FIG. 15D)
  survival (rate of death vs untreated group): rate of death was greater than the corresponding untreated group
[6]; 4 mg hDectin1-Fc i.p., 0.1 million Candida albicans i.v. (FIG. 15C)
  survival (rate of death vs untreated group): rate of death was greater than the corresponding untreated group
[6]; hDectin1-Fc at the appropriate dose, passive immunization 2 hours before challenge
  survivability: able to improve survivability
[6]; lethal infection model, 0.5 million Candida albicans cells (FIG. 15A)
  survival, 1 mg dose versus 2 mg dose: marginal optimal therapeutic effect of the 1 mg dose over the 2 mg dose
[7]
  reduction in MFC of Amphotericin B: ~45%

Source: patent publication US20230257444A1, “FUSION PROTEIN AND COMBINATIONS THEREOF” (Agency for Science, Technology and Research, priority 2020, published 2023)
